# Assay results: US20080044360A1 (COLLAGEN MEDICAL, published 2008)
# Bridge positions count the residues as written; N and C are the ends. Square brackets hold non-standard residues; d marks the D form. Primed or numbered codes have the meaning given here. Side chains are listed from the residue outwards. Ends that are not written are not given here. * marks the point of attachment. Gd^D = GdDOTAGA (gadolinium DOTAGA chelate); Bip = N[C@@H](Cc1ccc(-c2ccccc2)cc1)C(=O)O; Tyr(3-I) = N[C@@H](Cc1ccc(O)c(I)c1)C(=O)O; Phe(4-NH2) = Nc1ccc(C[C@H](N)C(=O)O)cc1; Gd^T(3) = GdDTPA attached via thiourea; 1Nal = N[C@@H](Cc1cccc2ccccc12)C(=O)O; 1,4 AMB(Gd^T) = not defined here; Hyp = O=C(O)[C@@H]1C[C@@H](O)CN1; 4Pal = N[C@@H](Cc1ccncc1)C(=O)O; Gd^G = not defined here; Gd^T = not defined here; Gd^T″ = GdDTPA-thiourea; NH(CH2)6NH2 = NCCCCCCN*; AEEA = NCCOCCOCC(=O)O; Aib = CC(C)(N)C(=O)O
# Biological target: T1, rat collagen, acid soluble, type I, rat tail (Upstate 08-115) (rat, UniProt P02454 152-1207; P02466 86-1125)
# T1 construct: tissue extract, gelled and dried in wells; also called dried rat collagen
# Assay: dried collagen assay
# T1 sequence (P02454 152-1207, chain 1 of 2): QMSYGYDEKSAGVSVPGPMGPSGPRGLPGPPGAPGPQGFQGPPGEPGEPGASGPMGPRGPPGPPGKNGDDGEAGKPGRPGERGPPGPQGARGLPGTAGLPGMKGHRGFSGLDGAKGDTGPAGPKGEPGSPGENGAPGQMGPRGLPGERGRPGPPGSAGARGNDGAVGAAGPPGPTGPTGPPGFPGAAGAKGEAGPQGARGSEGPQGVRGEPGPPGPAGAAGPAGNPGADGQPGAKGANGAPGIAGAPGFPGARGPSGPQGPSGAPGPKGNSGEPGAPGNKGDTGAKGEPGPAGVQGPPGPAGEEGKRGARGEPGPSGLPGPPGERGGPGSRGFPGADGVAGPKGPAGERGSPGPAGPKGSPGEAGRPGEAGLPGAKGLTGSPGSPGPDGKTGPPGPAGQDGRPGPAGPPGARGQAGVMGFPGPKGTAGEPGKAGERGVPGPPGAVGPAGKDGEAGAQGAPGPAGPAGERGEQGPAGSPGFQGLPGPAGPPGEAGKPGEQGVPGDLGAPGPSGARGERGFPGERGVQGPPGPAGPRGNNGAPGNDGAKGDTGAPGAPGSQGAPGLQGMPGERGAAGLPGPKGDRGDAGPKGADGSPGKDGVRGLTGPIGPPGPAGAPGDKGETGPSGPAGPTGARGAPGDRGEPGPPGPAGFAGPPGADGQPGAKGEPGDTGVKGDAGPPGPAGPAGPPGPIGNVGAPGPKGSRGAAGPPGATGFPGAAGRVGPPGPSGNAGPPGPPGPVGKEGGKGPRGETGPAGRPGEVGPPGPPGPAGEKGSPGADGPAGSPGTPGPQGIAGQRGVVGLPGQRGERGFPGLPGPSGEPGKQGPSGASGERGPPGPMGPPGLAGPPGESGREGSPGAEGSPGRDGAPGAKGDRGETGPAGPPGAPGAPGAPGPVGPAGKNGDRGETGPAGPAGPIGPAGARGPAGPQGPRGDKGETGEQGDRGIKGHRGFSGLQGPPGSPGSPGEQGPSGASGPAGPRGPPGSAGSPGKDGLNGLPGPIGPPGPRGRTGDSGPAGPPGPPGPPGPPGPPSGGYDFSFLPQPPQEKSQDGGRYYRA
# T1 sequence (P02466 86-1125, chain 2 of 2): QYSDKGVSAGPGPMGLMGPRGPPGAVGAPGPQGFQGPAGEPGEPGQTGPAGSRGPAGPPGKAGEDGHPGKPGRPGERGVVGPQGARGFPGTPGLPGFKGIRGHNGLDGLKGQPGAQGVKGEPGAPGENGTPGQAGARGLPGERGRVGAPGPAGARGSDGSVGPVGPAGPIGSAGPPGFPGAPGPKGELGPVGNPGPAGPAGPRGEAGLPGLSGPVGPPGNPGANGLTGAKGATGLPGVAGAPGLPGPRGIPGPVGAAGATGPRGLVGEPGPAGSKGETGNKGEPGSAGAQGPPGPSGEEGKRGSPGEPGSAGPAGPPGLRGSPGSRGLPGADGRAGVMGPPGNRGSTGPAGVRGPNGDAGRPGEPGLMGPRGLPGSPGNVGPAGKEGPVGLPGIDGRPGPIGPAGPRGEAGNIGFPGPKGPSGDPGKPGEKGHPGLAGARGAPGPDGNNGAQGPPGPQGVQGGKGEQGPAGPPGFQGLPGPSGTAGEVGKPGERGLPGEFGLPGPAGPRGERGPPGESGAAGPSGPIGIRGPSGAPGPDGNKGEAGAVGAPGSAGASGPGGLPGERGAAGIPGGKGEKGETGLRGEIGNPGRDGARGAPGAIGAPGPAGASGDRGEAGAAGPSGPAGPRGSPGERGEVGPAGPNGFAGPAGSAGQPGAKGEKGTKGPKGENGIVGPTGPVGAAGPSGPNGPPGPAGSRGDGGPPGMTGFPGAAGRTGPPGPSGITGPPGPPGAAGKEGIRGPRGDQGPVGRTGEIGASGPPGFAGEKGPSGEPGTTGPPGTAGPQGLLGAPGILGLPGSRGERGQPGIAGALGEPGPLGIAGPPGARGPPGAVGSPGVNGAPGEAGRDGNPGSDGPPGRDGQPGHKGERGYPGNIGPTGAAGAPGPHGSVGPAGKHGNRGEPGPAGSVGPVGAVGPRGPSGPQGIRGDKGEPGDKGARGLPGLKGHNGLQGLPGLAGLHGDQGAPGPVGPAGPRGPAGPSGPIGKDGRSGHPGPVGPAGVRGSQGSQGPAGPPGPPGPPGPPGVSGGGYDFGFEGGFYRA
row,Binder,% bound [%]
1,{Gd^T″}-GK([Gly-Gd^T″])WHCTTYFPHHYCL[Phe(4-NH2)]G (disulfide 5-14 (inferred); not fully specified (C-terminus)) [Compound ID 970],54
2,{Gd^T″}-GK([Gly-Gd^T″])WHCTTK(Gd^T″)FPHHYCLYY (disulfide 5-14 (inferred); not fully specified (C-terminus)) [Compound ID 980],80
3,{Gd^T″}-GK([Gly-Gd^T″])WHCYK(Gd^T″)YFPHHYCLYG (disulfide 5-14 (inferred); not fully specified (C-terminus)) [Compound ID 991],11
4,{Gd^T″}-GK([Gly-Gd^T″])WHC[Tyr(3-I)]TYFPHHYCLYG (disulfide 5-14 (inferred); not fully specified (C-terminus)) [Compound ID 973],92
5,"{Gd^T″}-GK([Gly-Gd^T″])WHCYTYFPHHYCVYG-{1,4 AMB(Gd^T)} (disulfide 5-14 (inferred); reading uncertain) [Compound ID 1000]",68
6,{Gd^T″}-GK([Gly-Gd^T″])WHCYTK(Gd^T″)FPHHYCVYY (disulfide 5-14 (inferred); not fully specified (C-terminus)) [Compound ID 979],86
7,{Gd^D}-K(Gd^D)K(Gd^D)WHCYTYFPHHYCVYG (disulfide 5-14 (inferred)) [Compound ID 1014],61
8,{Gd^T″}-GK([Gly-Gd^T″])WHCYTYFPHHYCVYG-{NH(CH2)6NH2-Gd^T″} (disulfide 5-14 (inferred)) [Compound ID 999],66
9,{Gd^T″}-GK([Gly-Gd^T″])WHCYTK(Gd^T″)FPYHYCVYY (disulfide 5-14 (inferred)) [Compound ID 1011],93
10,{Gd^T″}-GK([Gly-Gd^T″])WHCTTYFPHHYCL[Phe(4-NH2)](Gd^T″)G (disulfide 5-14 (inferred); not fully specified (C-terminus)) [Compound ID 971],25
11,{Gd^T″}-GK([Gly-Gd^T″])WHCYTYFPHHYCVYG-{AEEA-Gd^T″} (disulfide 5-14 (inferred)) [Compound ID 998],75
12,{Gd^T″}-GK([Gly-Gd^T″])WHCTTYFPHH[Phe(4-NH2)]CLYG (disulfide 5-14 (inferred); not fully specified (C-terminus)) [Compound ID 972],0
13,{Gd^T″}-GK([Gly-Gd^T″])WYCTTYFPHHYCLYG (disulfide 5-14 (inferred); not fully specified (C-terminus)) [Compound ID 990],62
14,{Gd^T″}-GK([Gly-Gd^T″])WHCYTK(Gd^T″)FPHHYCVYG (disulfide 5-14 (inferred); not fully specified (C-terminus)) [Compound ID 978],66
15,{Gd^T″}-GK([Gly-Gd^T″])WHCYTK(Gd^T″)FPHHYCK(Gd^T″)YY (disulfide 5-14 (inferred)) [Compound ID 1013],88
16,{Gd^T″}-GQWTCYGDEYTWYCNYE (disulfide 5-14 (inferred); not fully specified (C-terminus)) [Compound ID 826],71

row,Binder,% bound [%]
1,{Gd^T″}-GQWHCTTRFPHHYCLYG[dK](Gd^T″) (disulfide 5-14 (inferred); not fully specified (C-terminus)) [Compound ID 808],19
2,{Gd^T}-DWTCSGDEYTWHCNY[Aib] (disulfide 4-13; not fully specified (C-terminus); reading uncertain) [Compound ID 850],67
3,{Gd^T}-PPQWHCTTRF[Hyp]HHYCLYG (disulfide 6-15; not fully specified (C-terminus); reading uncertain) [Compound ID 856],42
4,"{Gd^T″}-GK([Gly-Gd^T″])WHCTTK(Gd^T″)FPHHYCLY[Bip] (disulfide 5-14; not fully specified (C-terminus), also called Comp ID No:800) [Compound ID 800]",88
5,{Gd^T(3)}-K(Gd^T(3))K(Gd^T(3))WHCTTK(Gd^T(3))FPHHYCLY[Bip] (disulfide 5-14 (inferred)) [Compound ID 997],55
6,{Gd^T(3)}-GK([Gly-Gd^T(3)])WHCTTYFPHHYCLY[Bip] (disulfide 5-14) [Compound ID 950],79
7,{Gd^T}-GQWHCTTR[1Nal]PHHYCLYG (disulfide 5-14; not fully specified (C-terminus); reading uncertain) [Compound ID 860],45
8,{Gd^T}-PPQWHCTTRFPHHYCLYG (disulfide 6-15 (inferred); not fully specified (C-terminus); reading uncertain) [Compound ID 854],56
9,{Gd^G}-GQWTCSGDEYTWHCNY (disulfide 5-14 (inferred); not fully specified (C-terminus); reading uncertain) [Compound ID 823],28
10,{Gd^T}-DWTC[4Pal]GDEYTWHCNYE (disulfide 4-13; not fully specified (C-terminus); reading uncertain) [Compound ID 849],42
11,{Gd^T″}-GQWHCTTRFPHHYCLYGK(Gd^T″) (disulfide 5-14 (inferred); not fully specified (C-terminus)) [Compound ID 807],45
12,{Gd^G}-GQWTCSGDAYTWHCAYE (disulfide 5-14 (inferred); not fully specified (C-terminus); reading uncertain) [Compound ID 820],29
13,{Gd^T}-GQWTCSGDEYTWHCAYE (disulfide 5-14 (inferred); not fully specified (C-terminus); reading uncertain) [Compound ID 839],11
14,{Gd^T}-GQWTCSGDEYTWHCNYA (disulfide 5-14 (inferred); not fully specified (C-terminus); reading uncertain) [Compound ID 841],28
15,"GQWTCSGDAYTWHCNYE (disulfide 5-14 (inferred); not fully specified (N-terminus, C-terminus)) [Compound ID 838]",61
16,{Gd^T″}-GAWTCSGDEYTWHCNYE (disulfide 5-14 (inferred); not fully specified (C-terminus)) [Compound ID 830],11

# Biological target: T2, human collagen type I, acid soluble, extracted from placenta (Sigma C7774) (human, UniProt P02452 162-1218; P08123 80-1119)
# T2 construct: tissue extract, gelled and dried in wells; also called dried human collagen; h-Collagen
# Assay: dried collagen assay
# T2 sequence (P02452 162-1218 limits assumed, chain 1 of 2): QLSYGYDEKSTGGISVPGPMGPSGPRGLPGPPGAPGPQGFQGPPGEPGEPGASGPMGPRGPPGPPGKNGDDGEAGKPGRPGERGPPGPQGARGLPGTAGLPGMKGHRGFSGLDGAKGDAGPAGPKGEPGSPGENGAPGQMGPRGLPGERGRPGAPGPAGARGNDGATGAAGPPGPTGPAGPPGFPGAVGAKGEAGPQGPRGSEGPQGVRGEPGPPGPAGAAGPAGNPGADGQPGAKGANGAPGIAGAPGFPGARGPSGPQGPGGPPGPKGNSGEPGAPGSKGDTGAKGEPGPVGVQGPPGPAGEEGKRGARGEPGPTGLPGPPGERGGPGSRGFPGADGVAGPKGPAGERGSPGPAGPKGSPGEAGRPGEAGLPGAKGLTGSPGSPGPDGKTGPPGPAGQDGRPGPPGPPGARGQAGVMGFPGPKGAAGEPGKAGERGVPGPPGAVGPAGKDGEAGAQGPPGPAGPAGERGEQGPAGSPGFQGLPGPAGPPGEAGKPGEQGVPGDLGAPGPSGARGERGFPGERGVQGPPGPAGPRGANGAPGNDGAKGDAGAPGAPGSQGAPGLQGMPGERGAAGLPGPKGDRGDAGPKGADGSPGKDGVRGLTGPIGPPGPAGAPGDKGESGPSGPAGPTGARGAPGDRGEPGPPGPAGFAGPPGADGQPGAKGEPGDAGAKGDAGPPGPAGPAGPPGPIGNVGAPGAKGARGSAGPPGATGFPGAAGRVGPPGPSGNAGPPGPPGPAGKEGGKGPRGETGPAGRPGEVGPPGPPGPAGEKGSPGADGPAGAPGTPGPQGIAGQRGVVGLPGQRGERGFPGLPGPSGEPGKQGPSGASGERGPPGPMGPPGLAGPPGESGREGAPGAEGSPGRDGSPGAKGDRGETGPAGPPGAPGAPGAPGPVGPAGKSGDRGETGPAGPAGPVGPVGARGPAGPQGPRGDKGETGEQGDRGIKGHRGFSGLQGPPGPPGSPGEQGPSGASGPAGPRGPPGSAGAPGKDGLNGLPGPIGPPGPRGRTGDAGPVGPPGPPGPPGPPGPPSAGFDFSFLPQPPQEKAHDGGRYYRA
# T2 sequence (P08123 80-1119 limits assumed, chain 2 of 2): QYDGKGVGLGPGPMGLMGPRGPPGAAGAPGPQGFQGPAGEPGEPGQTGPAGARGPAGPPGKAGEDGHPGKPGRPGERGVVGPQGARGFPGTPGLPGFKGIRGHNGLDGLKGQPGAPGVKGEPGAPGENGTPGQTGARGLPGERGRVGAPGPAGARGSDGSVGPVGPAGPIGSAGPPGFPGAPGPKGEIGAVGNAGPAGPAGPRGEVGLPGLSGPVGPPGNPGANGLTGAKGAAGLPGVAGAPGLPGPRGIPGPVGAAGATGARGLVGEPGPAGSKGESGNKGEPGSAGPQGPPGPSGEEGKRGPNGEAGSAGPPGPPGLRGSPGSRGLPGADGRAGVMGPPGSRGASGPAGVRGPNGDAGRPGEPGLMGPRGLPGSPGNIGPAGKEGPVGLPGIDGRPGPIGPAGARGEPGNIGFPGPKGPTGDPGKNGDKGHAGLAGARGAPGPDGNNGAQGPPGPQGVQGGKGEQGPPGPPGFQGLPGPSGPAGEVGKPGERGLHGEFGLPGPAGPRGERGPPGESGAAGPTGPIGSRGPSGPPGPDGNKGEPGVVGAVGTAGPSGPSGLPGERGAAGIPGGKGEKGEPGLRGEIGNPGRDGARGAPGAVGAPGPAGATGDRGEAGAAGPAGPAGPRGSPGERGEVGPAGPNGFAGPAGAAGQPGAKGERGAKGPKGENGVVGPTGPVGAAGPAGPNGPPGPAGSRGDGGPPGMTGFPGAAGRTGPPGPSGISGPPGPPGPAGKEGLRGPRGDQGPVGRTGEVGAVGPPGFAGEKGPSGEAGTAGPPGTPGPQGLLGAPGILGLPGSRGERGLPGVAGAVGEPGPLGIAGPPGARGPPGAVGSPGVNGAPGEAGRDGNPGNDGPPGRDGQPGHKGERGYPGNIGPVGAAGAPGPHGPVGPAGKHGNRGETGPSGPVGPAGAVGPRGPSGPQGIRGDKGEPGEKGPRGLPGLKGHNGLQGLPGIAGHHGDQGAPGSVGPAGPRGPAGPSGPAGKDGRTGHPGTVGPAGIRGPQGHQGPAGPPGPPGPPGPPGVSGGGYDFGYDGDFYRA
row,Binder,% bound [%]
1,{Gd^T″}-GK([Gly-Gd^T″])WHCTTYFPHHYCL[Phe(4-NH2)]G (disulfide 5-14 (inferred); not fully specified (C-terminus)) [Compound ID 970],53
2,{Gd^T″}-GK([Gly-Gd^T″])WHCTTK(Gd^T″)FPHHYCLYY (disulfide 5-14 (inferred); not fully specified (C-terminus)) [Compound ID 980],85
3,{Gd^T″}-GK([Gly-Gd^T″])WHCYK(Gd^T″)YFPHHYCLYG (disulfide 5-14 (inferred); not fully specified (C-terminus)) [Compound ID 991],23
4,{Gd^T″}-GK([Gly-Gd^T″])WHC[Tyr(3-I)]TYFPHHYCLYG (disulfide 5-14 (inferred); not fully specified (C-terminus)) [Compound ID 973],85
5,"{Gd^T″}-GK([Gly-Gd^T″])WHCYTYFPHHYCVYG-{1,4 AMB(Gd^T)} (disulfide 5-14 (inferred); reading uncertain) [Compound ID 1000]",75
6,{Gd^T″}-GK([Gly-Gd^T″])WHCYTK(Gd^T″)FPHHYCVYY (disulfide 5-14 (inferred); not fully specified (C-terminus)) [Compound ID 979],87
7,{Gd^D}-K(Gd^D)K(Gd^D)WHCYTYFPHHYCVYG (disulfide 5-14 (inferred)) [Compound ID 1014],72
8,{Gd^T″}-GK([Gly-Gd^T″])WHCYTYFPHHYCVYG-{NH(CH2)6NH2-Gd^T″} (disulfide 5-14 (inferred)) [Compound ID 999],65
9,{Gd^T″}-GK([Gly-Gd^T″])WHCYTK(Gd^T″)FPYHYCVYY (disulfide 5-14 (inferred)) [Compound ID 1011],94
10,{Gd^T″}-GK([Gly-Gd^T″])WHCTTYFPHHYCL[Phe(4-NH2)](Gd^T″)G (disulfide 5-14 (inferred); not fully specified (C-terminus)) [Compound ID 971],21
11,{Gd^T″}-GK([Gly-Gd^T″])WHCYTYFPHHYCVYG-{AEEA-Gd^T″} (disulfide 5-14 (inferred)) [Compound ID 998],71
12,{Gd^T″}-GK([Gly-Gd^T″])WHCTTYFPHH[Phe(4-NH2)]CLYG (disulfide 5-14 (inferred); not fully specified (C-terminus)) [Compound ID 972],3
13,{Gd^T″}-GK([Gly-Gd^T″])WYCTTYFPHHYCLYG (disulfide 5-14 (inferred); not fully specified (C-terminus)) [Compound ID 990],59
14,{Gd^T″}-GK([Gly-Gd^T″])WHCYTK(Gd^T″)FPHHYCVYG (disulfide 5-14 (inferred); not fully specified (C-terminus)) [Compound ID 978],64
15,{Gd^T″}-GK([Gly-Gd^T″])WHCYTK(Gd^T″)FPHHYCK(Gd^T″)YY (disulfide 5-14 (inferred)) [Compound ID 1013],81
16,{Gd^T″}-GQWTCYGDEYTWYCNYE (disulfide 5-14 (inferred); not fully specified (C-terminus)) [Compound ID 826],87

row,Binder,% bound [%]
1,{Gd^T″}-GQWHCTTRFPHHYCLYG[dK](Gd^T″) (disulfide 5-14 (inferred); not fully specified (C-terminus)) [Compound ID 808],25
2,{Gd^T}-DWTCSGDEYTWHCNY[Aib] (disulfide 4-13; not fully specified (C-terminus); reading uncertain) [Compound ID 850],75
3,{Gd^T}-PPQWHCTTRF[Hyp]HHYCLYG (disulfide 6-15; not fully specified (C-terminus); reading uncertain) [Compound ID 856],52
4,"{Gd^T″}-GK([Gly-Gd^T″])WHCTTK(Gd^T″)FPHHYCLY[Bip] (disulfide 5-14; not fully specified (C-terminus), also called Comp ID No:800) [Compound ID 800]",85
5,{Gd^T(3)}-K(Gd^T(3))K(Gd^T(3))WHCTTK(Gd^T(3))FPHHYCLY[Bip] (disulfide 5-14 (inferred)) [Compound ID 997],53
6,{Gd^T(3)}-GK([Gly-Gd^T(3)])WHCTTYFPHHYCLY[Bip] (disulfide 5-14) [Compound ID 950],78
7,{Gd^T}-GQWHCTTR[1Nal]PHHYCLYG (disulfide 5-14; not fully specified (C-terminus); reading uncertain) [Compound ID 860],60
8,{Gd^T}-PPQWHCTTRFPHHYCLYG (disulfide 6-15 (inferred); not fully specified (C-terminus); reading uncertain) [Compound ID 854],64
9,{Gd^G}-GQWTCSGDEYTWHCNY (disulfide 5-14 (inferred); not fully specified (C-terminus); reading uncertain) [Compound ID 823],53
10,{Gd^T}-DWTC[4Pal]GDEYTWHCNYE (disulfide 4-13; not fully specified (C-terminus); reading uncertain) [Compound ID 849],64
11,{Gd^T″}-GQWHCTTRFPHHYCLYGK(Gd^T″) (disulfide 5-14 (inferred); not fully specified (C-terminus)) [Compound ID 807],48
12,{Gd^G}-GQWTCSGDAYTWHCAYE (disulfide 5-14 (inferred); not fully specified (C-terminus); reading uncertain) [Compound ID 820],60
13,{Gd^T}-GQWTCSGDEYTWHCAYE (disulfide 5-14 (inferred); not fully specified (C-terminus); reading uncertain) [Compound ID 839],30
14,{Gd^T}-GQWTCSGDEYTWHCNYA (disulfide 5-14 (inferred); not fully specified (C-terminus); reading uncertain) [Compound ID 841],51
15,"GQWTCSGDAYTWHCNYE (disulfide 5-14 (inferred); not fully specified (N-terminus, C-terminus)) [Compound ID 838]",70
16,{Gd^T″}-GAWTCSGDEYTWHCNYE (disulfide 5-14 (inferred); not fully specified (C-terminus)) [Compound ID 830],26
